Read-outs that look alike come from different tables or passages of the source. One block for each molecule: values may come before it.
Columns and labels:
[1] = R1 and R2 relaxivity with a relaxometer; assay type: physicochemical; details: 1.4 T
Description: To ensure that the fusion protein is applicable as a MRI contrast agent, the Gd^3+ binding property and R1/R2 relaxivity of the fusion protein were tested using well-known methods.

[2] = cited from earlier work
[3] = test system: Diabetic mice (BKS.Cg-Lepr^db/db); test: Blood glucose lowering in fed diabetic mice (Example 15); assay type: in vivo
Description: The animals were re-feed for 25 minutes 5 hours after drug administration and 35 minutes before the last time point of blood sample collection. The A Blood Glucose (mg/dl) was determined by calculating the difference between the measured blood glucose levels at any given time point and the initial blood glucose levels. The initial blood glucose levels were measured after feeding for 20 min and before the drug administration (time zero). The error bars represent standard deviations of measurements of eight mice.
The developed protein agent was tested to determine whether it had the in vivo capability of lowering blood glucose in diabetic subjects. Diabetic mice (BKS.Cg-Lepr^db/db, The Jackson Laboratory) were used as test subjects. A group of six animals first fasted for 6 hours. After fasting, the animals were fed for 30 minutes. The protein agent was administered after feeding by intraperitoneal injection at a dose of 25 nmole/kg. The animals were fed again for 30 mins, 5 hrs after agent administration. Blood samples were taken at different time points after administration of the agent. Glucose concentration in the blood samples was measured using a commercially available kit.

diabetic mice = test: Blood glucose and glucose-dependent insulin secretion after co-administration with glucose (Example 16); assay type: in vivo; details: 25 nmole/kg agent with 15 mmole/kg glucose i.p.
Description: FIG. 12 is a pair of graphs showing the changes in Δ blood glucose (Upper panel) and Δ insulin (bottom panel) in a group of 8 diabetic mice at different time points after injection of 15 mmole/kg of glucose with 25 nmole/kg of different agents.
The effects of the developed agent on blood glucose lowering and stimulating of the glucose-dependent insulin secretion in diabetic mice were also examined. The animals first fasted for 6 hours. The protein agent (25 nmole/kg) and glucose (15 mmole/kg) were co-administrated via intraperitoneal injection with a group of eight diabetic mice. The blood glucose and insulin levels were measured at different time points. As controls, the same dose of glucose was administrated alone and co-administrated with the parental protein calbindin in separate groups of diabetic mice.

CHO cells = test: Immunostaining binding analysis, CHO cells (no GLP-1R); assay type: cell-based; details: Cal.GLP 10 μM, calbindin D9k 50 μM, 37° C., 30 mins
Description: (§1) FIG. 10 is a series of digital images showing immunofluorescence staining of CHO or RINm5F cells that were treated by calbindin (50 μM) and Cal.GLP (10 μM). The cells were extensively washed after 30 min treatments under 37° C. in microscopic chamber slides and subsequently fixed. The cells were stained with the calbindin-specific antibody and visualized under confocal microscopy. The light shading represents antibody staining.
(§2) To examine whether the developed protein indeed interacted with GLP-1R, the binding of the fusion protein with two cell lines, RINm5F and CHO cells was examined. It is well known that GLP-1R is expressed in RINm5F but not in CHO cells. Both RINm5F and CHO cells were incubated with fusion protein Cal.GLP (10 μM) or calbindin D9k (50 μM) at 37° C. for 30 mins. After extensive washing, the cells were fixed and subjected to immunostaining analyses using a rabbit polyclonal antibody against parental protein calbindin D9k. […] Similar binding analyses were carried out with RINm5F cells and a […] (αTC1).

RINm5F cells = test: Immunostaining binding analysis, RINm5F cells (GLP-1R expressed); assay type: cell-based, rat; details: Cal.GLP 10 μM, calbindin D9k 50 μM, 37° C., 30 mins
Description: as §1, §2

GLP-1 receptor = target: T1, GLP-1 receptor (Rattus norvegicus, UniProt P32301); test: Cell-based intracellular cAMP assay (Lance cAMP 384 kit) in RINm5F cells; details: concentration around 200 μM
T1 construct: It is well known that GLP-1R is expressed in RINm5F but not in CHO cells; endogenous in cells; host or cells: RINm5F rat insulinoma cells
T1 sequence (P32301 22-463): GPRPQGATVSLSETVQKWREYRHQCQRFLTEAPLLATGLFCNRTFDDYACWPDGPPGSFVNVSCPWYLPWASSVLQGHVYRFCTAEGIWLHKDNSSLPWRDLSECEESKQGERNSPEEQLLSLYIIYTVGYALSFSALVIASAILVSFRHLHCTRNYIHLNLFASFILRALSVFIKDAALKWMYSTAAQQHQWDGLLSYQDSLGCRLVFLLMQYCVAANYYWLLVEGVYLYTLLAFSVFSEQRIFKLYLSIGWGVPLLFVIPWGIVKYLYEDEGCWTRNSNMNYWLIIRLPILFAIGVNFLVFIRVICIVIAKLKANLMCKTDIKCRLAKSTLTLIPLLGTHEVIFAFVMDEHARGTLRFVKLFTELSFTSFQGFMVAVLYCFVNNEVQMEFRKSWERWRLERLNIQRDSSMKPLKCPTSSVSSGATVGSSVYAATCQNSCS
Description: The cells were harvested 30 minutes post treatments. Cell lysates were prepared from the harvested cells. The cAMP levels in the lysate were then measured and expressed as pmole values. The error bars represent standard deviations of four times of measurements.
A Lance cAMP 384® Kit (Perkin Elmer, Inc) was used to compare the incretin effects of fusion protein and PEGylated protein. Rat Insulinoma cells (RINm5F) were cultured with RPMI1640 with 10% FBS in 75 cm^2 cell culture flasks. Cells are harvested and washed three times with HBSS (Invitrogen Corp.) buffer. A series of 5 μl test protein and 5 μl cell suspension with 5000 cells in stimulation buffer (1×HBSS buffer with 5 mM HEPES, 0.1% BSA and 150 mM IBMX) and Alexa, biotin labeled cAMP antibodies were incubated at 37° C. for 15 mins in 384-well plate. […] A VICTOR^3 plated reader (PerkinElmer, Inc.) was used to detect the fluorescence signal at excitation 340 nm and emission 665 nm and 615 nm. The collected data was then analyzed with the equation of F=F665 nm/F615 nm. […]
The effects of the PEGylated proteins and unPEGylated protein in stimulating the cAMP production were examined in rat insulinoma β-cells RINm5F. The cAMP production was analyzed using a commercial cAMP kit (PerkinElmer).

[4] = in vivo

R1 [1]: 3.8 mM^−1S^−1
Molecule: O=C(O)CN(CCN(CC(=O)O)CC(=O)O)CCN(CC(=O)O)CC(=O)O (Gd complex, metal not drawn) [DTPA, reference compound]

Molecule: CC[C@H](C)[C@H](NC(=O)[C@H](Cc1ccccc1)NC(=O)[C@H](CCC(=O)O)NC(=O)[C@H](CCCCN)NC(=O)[C@H](C)NC(=O)[C@H](C)NC(=O)[C@H](CCC(N)=O)NC(=O)CNC(=O)[C@H](CCC(=O)O)NC(=O)[C@H](CC(C)C)NC(=O)[C@H](Cc1ccc(O)cc1)NC(=O)[C@H](CO)NC(=O)[C@H](CO)NC(=O)[C@@H](NC(=O)[C@H](CC(=O)O)NC(=O)[C@H](CO)NC(=O)[C@@H](NC(=O)[C@H](Cc1ccccc1)NC(=O)[C@@H](NC(=O)CNC(=O)[C@H](CCC(=O)O)NC(=O)[C@H](C)NC(=O)[C@@H](N)Cc1c[nH]cn1)[C@@H](C)O)[C@@H](C)O)C(C)C)C(=O)N[C@@H](C)C(=O)N[C@@H](Cc1c[nH]c2ccccc12)C(=O)N[C@@H](CC(C)C)C(=O)N[C@H](C(=O)N[C@@H](CCCCN)C(=O)NCC(=O)N[C@@H](CCCNC(=N)N)C(N)=O)C(C)C [GLP-1 peptide]
circulation time ([2]; degradation by DPP-4): less than 2 minutes

Molecule: CCCCCCCCCCCCCCCC(=O)N[C@@H](CCC(=O)NCCCC[C@H](NC(=O)[C@H](C)NC(=O)[C@H](C)NC(=O)[C@H](CCC(N)=O)NC(=O)CNC(=O)[C@H](CCC(=O)O)NC(=O)[C@H](CC(C)C)NC(=O)[C@H](Cc1ccc(O)cc1)NC(=O)[C@H](CO)NC(=O)[C@H](CO)NC(=O)[C@@H](NC(=O)[C@H](CC(=O)O)NC(=O)[C@H](CO)NC(=O)[C@@H](NC(=O)[C@H](Cc1ccccc1)NC(=O)[C@@H](NC(=O)CNC(=O)[C@H](CCC(=O)O)NC(=O)[C@H](C)NC(=O)[C@@H](N)Cc1cnc[nH]1)[C@@H](C)O)[C@@H](C)O)C(C)C)C(=O)N[C@@H](CCC(=O)O)C(=O)N[C@@H](Cc1ccccc1)C(=O)N[C@H](C(=O)N[C@@H](C)C(=O)N[C@@H](Cc1c[nH]c2ccccc12)C(=O)N[C@@H](CC(C)C)C(=O)N[C@H](C(=O)N[C@@H](CCCNC(=N)N)C(=O)NCC(=O)N[C@@H](CCCNC(=N)N)C(=O)NCC(=O)O)C(C)C)[C@@H](C)CC)C(=O)O [Liraglutide]
blood circulation time ([2]; in vivo): more than 10 hr

Molecule: Exendin 4 [reference compound]
drop of blood glucose levels ([3]; 25 nmole/kg i.p., within 30 minutes): about 189 mg/dl
blood glucose levels after re-feed ([3]; 6 hours post administration, one hour after re-feed): almost reached the same blood glucose levels before the drug treatments
time of immediate insulin increase and glucose decrease (diabetic mice): ≤ 30 min

B1: calbindin: parental host protein human Calbindin D9k, negative control; SEQ ID NO: 13 (protein)
chain: MSTKKSPEELKRIFEKYAAKEGDPDQLSKDELKLLIQAEFPSLLKGPNTLDDLFQELDKNGDGEVSFEEFQVLVKKISQ
modifications: human calbindin D9K
binding to CHO cells (CHO cells): did not bind to either cell
binding to RINm5F cells (RINm5F cells): did not bind to either cell
R1 [1]: 6.58 mM^−1S^−1
increase of intracellular cAMP level (GLP-1 receptor): could not increase cell intracellular cAMP level
change of blood glucose levels ([3]; control group, same dose (25 nmole/kg)): decreased slightly
blood glucose lowering post glucose and drug administration (diabetic mice): did not
blood circulation time [4]: more than 24 hours

B2: Cal.GLP/Q26D: Q26D variant of the Cal.GLP fusion protein; SEQ ID NO: 18 (protein)
chain: MSTKKSPEELKRIFEKYAAKEGDPDDLSKDELKLLIQAEFPCLLKGPNTLDDLFQELDKNGHAEGTFTSDVSSYLEGQAAKEFIAWLVKGR
R1 [1]: 20 mM^−1S^−1

Source: patent US8697648B2, “Protein agent for diabetes treatment and β cell imaging” (Georgia State University Research Foundation, Inc., priority 2009, dated 2014)
